From PMC7337524, “Mammalian Nudix proteins cleave nucleotide metabolite caps on RNAs” (Nucleic Acids Research, 2020)

Molecular target: the molecule itself
Experiment: crystal structure; crystals of free human Nudt16 (2.3 Å, with 100 mM MES pH 5.5) and of Nudt16 incubated with 5 mM FAD (2.7 Å); sitting drop at 20°C, 0.2 M ammonium chloride, 20% PEG 3350

B1: human Nudt16 (residues 1-184) (enzyme, UniProt Q96DE0 1-184, looked up)
chain: MAGARRLELGEALALGSGWRHACHALLYAPDPGMLFGRIPLRYAILMQMRFDGRLGFPGGFVDTQDRSLEDGLNRELREELGEAAAAFRVERTDYRSSHVGSGPRVVAHFYAKRLTLEELLAVEAGATRAKDHGLEVLGLVRVPLYTLRDGVGGLPTFLENSFIGSAREQLLEALQDLGLLQSG
notes: Nudt16, human, residues 1-184, cloned into a modified pET28a vector; Seen as a dimer in both crystal forms, free and with FAD; PDB 3COU is the cited search model for molecular replacement; also called free human Nudt16; source: E. coli BL21(DE3), purified (Ni-NTA, UlpI cleavage, heparin column, Sephacryl S-200); not shown: His6, N-terminal, cleaved; yeast SMT3 SUMO, N-terminal, cleaved
  binding result: binds
